Reference: publication PMC7954794, “Protein context shapes the specificity of SH3 domain-mediated interactions in vivo” (Nature Communications, 2021)

System: growth of yeast strains under 51 stress conditions
Assay: Growth assays in 51 stress conditions (Fig. 1E-F, S2D, S5B)
Format: cell-based, Saccharomyces cerevisiae
Set-up: key to Growth (Fig. S2D) / growth of ABP1 SH3-swapped strains in stress condition: log2 colony size, average of median per strain (growth score)
Conditions: FigS2D
Procedure, shortened: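 Yeast WT, SH3-deleted, KO, SH3-swapped and SH3-shuffled strains pinned in 1536 format, 12 replicates each; pregrown on YPD 2 days at 30 °C, then replicated onto 51 media at 37 °C and imaged every 2 h. Growth score = mean of per-plate median log2 colony size at 74 h.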

B1: YSC84 (protein, UniProt P32793 1-468, looked up)
Protein YSC84: MGINNPIPRSLKSETKKAAKVLRSFVKPNQVFGADQVIPPYVLKRAKGLAIITVLKAGFLFSGRAGSGVIVARLKDGTWSAPSAIAMAGAGAGGMVGVELTDFVFILNSEEAVRSFSEFGTITLGGNVSVSAGPLGRSAEAAASASTGGVSAVFAYSKSKGLFAGVSVEGSAILERREANRKFYGDNCTSKMILSGRVKVPPAADPLLRILESRAFNFTRHDHDDNASGDDFYDDGQYSDNTSHYYDDIPDSFDSTDESSTRPNTRSSRRRGMSLGSRSRYDDDYDDDGYGRGRGYGDFDSEDEDYDYGRSPNRNSSRNRGPQIDRGTKPRANTRWEDDLYDRDTEYSRPNHSGRDYDNTRGNRRGYGRERGYSLGHGPTHPSNMSNVDDLSHKMSKTGLGNESTATNSATPTAVALYNFAGEQPGDLAFKKGDVITILKKSDSQNDWWTGRTNGKEGIFPANYVRVS
B1 was tested, and the “growth of ABP1 SH3-swapped strains in stress condition” value (“growth of ABP1 SH3-swapped strains” below) (Bathophenanthroline.0.1uM) was 10.863, the “growth of ABP1 SH3-swapped strains” value (Bathophenanthroline.10uM) was 10.6791 and the “growth of ABP1 SH3-swapped strains” value (Bathophenanthroline.1uM) was 10.8306. For the same molecule, the “growth of ABP1 SH3-swapped strains” value (CaCl2.100mM) was 10.8211, the “growth of ABP1 SH3-swapped strains” value (CaCl2.250mM) was 10.7492 and the “growth of ABP1 SH3-swapped strains” value (CaCl2.500mM) was 10.2924. For the same molecule, the “growth of ABP1 SH3-swapped strains” value (Caffein.10mM) was 10.0875, the “growth of ABP1 SH3-swapped strains” value (Caffein.2mM) was 11.0461 and the “growth of ABP1 SH3-swapped strains” value (CdCl2.100uM) was 9.612. For the same molecule, the “growth of ABP1 SH3-swapped strains” value (CdCl2.10uM) was 10.8942, the “growth of ABP1 SH3-swapped strains” value (CdCl2.50uM) was 9.965 and the “growth of ABP1 SH3-swapped strains” value (CuSO4.1mM) was 10.4219. The “growth of ABP1 SH3-swapped strains” value (CuSO4.5mM) was 8.049, the “growth of ABP1 SH3-swapped strains” value (Cycloheximide.0.05.uM) was 11.0738 and the “growth of ABP1 SH3-swapped strains” value (Cycloheximide.0.2.uM) was 10.6488. For the same molecule, the “growth of ABP1 SH3-swapped strains” value (Cycloheximide.0.5.uM) was 10.1375, the “growth of ABP1 SH3-swapped strains” value (DMSO.2.) was 11.0761 and the “growth of ABP1 SH3-swapped strains” value (DMSO.6.) was 9.8918. The “growth of ABP1 SH3-swapped strains” value (DMSO.8.) was 9.375, the “growth of ABP1 SH3-swapped strains” value (Ethanol.2.) was 10.7982 and the “growth of ABP1 SH3-swapped strains” value (Ethanol.6.) was 10.2832. The “growth of ABP1 SH3-swapped strains” value (Ethanol.8.) was 10.0513, the “growth of ABP1 SH3-swapped strains” value (Galactose.2.) was 10.753 and the “growth of ABP1 SH3-swapped strains” value (Glycerol.2.) was 9.905. For the same molecule, the “growth of ABP1 SH3-swapped strains” value (Hydroxyurea.25mM) was 10.7776, the “growth of ABP1 SH3-swapped strains” value (Hygromycin.190uM) was 10.9721 and the “growth of ABP1 SH3-swapped strains” value (Hygromycin.19uM) was 10.9865. For the same molecule, the “growth of ABP1 SH3-swapped strains” value (Hygromycin.95uM) was 11.0398, the “growth of ABP1 SH3-swapped strains” value (MMS.0.004.) was 10.997 and the “growth of ABP1 SH3-swapped strains” value (MMS.0.02.) was 10.758. The “growth of ABP1 SH3-swapped strains” value (MMS.0.04.) was 10.0132, the “growth of ABP1 SH3-swapped strains” value (Menadione.100uM) was 10.5944 and the “growth of ABP1 SH3-swapped strains” value (Menadione.200uM) was 10.563. For the same molecule, the “growth of ABP1 SH3-swapped strains” value (Menadione.50uM) was 10.853, the “growth of ABP1 SH3-swapped strains” value (NaCl.0.25M) was 10.8517 and the “growth of ABP1 SH3-swapped strains” value (NaCl.1M) was 9.6266. For the same molecule, the “growth of ABP1 SH3-swapped strains” value (Nitroquinoline.10uM) was 10.6185, the “growth of ABP1 SH3-swapped strains” value (Nitroquinoline.50uM) was 10.6333 and the “growth of ABP1 SH3-swapped strains” value (Nystatin.0.01uM) was 10.9762. The “growth of ABP1 SH3-swapped strains” value (Nystatin.0.1uM) was 10.9958, the “growth of ABP1 SH3-swapped strains” value (Raffinose.2.) was 11.0249 and the “growth of ABP1 SH3-swapped strains” value (Rapamycin.10nM) was 9.871. For the same molecule, the “growth of ABP1 SH3-swapped strains” value (Rapamycin.50nM) was 9.5402, the “growth of ABP1 SH3-swapped strains” value (SC.pH3) was 10.4227 and the “growth of ABP1 SH3-swapped strains” value (SC.pH6) was 10.9991. The “growth of ABP1 SH3-swapped strains” value (SDS.0.01.) was 11.0315, the “growth of ABP1 SH3-swapped strains” value (SDS.0.02.) was 11.0179 and the “growth of ABP1 SH3-swapped strains” value (SDS.0.05.) was 10.9653. For the same molecule, the “growth of ABP1 SH3-swapped strains” value (Sorbitol.10mM) was 10.9675, the “growth of ABP1 SH3-swapped strains” value (Sorbitol.1mM) was 11.0498 and the “growth of ABP1 SH3-swapped strains” value (Sorbitol.5mM) was 10.8766.

B2: SHO1 (protein, UniProt P40073 1-367, looked up)
High osmolarity signaling …: MSISSKIRPTPRKPSRMATDHSFKMKKFYADPFAISSISLAIVSWVIAIGGSISSASTNESFPRFTWWGIVYQFLIICSLMLFYCFDLVDHYRIFITTSIAVAFVYNTNSATNLVYADGPKKAAASAGVILLSIINLIWILYYGGDNASPTNRWIDSFSIKGIRPSPLENSLHRARRRGNRNTTPYQNNVYNDAIRDSGYATQFDGYPQQQPSHTNYVSSTALAGFENTQPNTSEAVNLHLNTLQQRINSASNAKETNDNSNNQTNTNIGNTFDTDFSNGNTETTMGDTLGLYSDIGDDNFIYKAKALYPYDADDDDAYEISFEQNEILQVSDIEGRWWKARRANGETGIIPSNYVQLIDGPEEMHR
B2 was tested, and the “growth of ABP1 SH3-swapped strains” value (Bathophenanthroline.0.1uM) was 10.8666, the “growth of ABP1 SH3-swapped strains” value (Bathophenanthroline.10uM) was 10.6802 and the “growth of ABP1 SH3-swapped strains” value (Bathophenanthroline.1uM) was 10.8165. The “growth of ABP1 SH3-swapped strains” value (CaCl2.100mM) was 10.8196, the “growth of ABP1 SH3-swapped strains” value (CaCl2.250mM) was 10.7666 and the “growth of ABP1 SH3-swapped strains” value (CaCl2.500mM) was 10.33. The “growth of ABP1 SH3-swapped strains” value (Caffein.10mM) was 9.975, the “growth of ABP1 SH3-swapped strains” value (Caffein.2mM) was 10.938 and the “growth of ABP1 SH3-swapped strains” value (CdCl2.100uM) was 9.34. The “growth of ABP1 SH3-swapped strains” value (CdCl2.10uM) was 10.884, the “growth of ABP1 SH3-swapped strains” value (CdCl2.50uM) was 9.827 and the “growth of ABP1 SH3-swapped strains” value (CuSO4.1mM) was 10.4931. For the same molecule, the “growth of ABP1 SH3-swapped strains” value (CuSO4.5mM) was 7.806, the “growth of ABP1 SH3-swapped strains” value (Cycloheximide.0.05.uM) was 11.0905 and the “growth of ABP1 SH3-swapped strains” value (Cycloheximide.0.2.uM) was 10.7035. For the same molecule, the “growth of ABP1 SH3-swapped strains” value (Cycloheximide.0.5.uM) was 10.0394, the “growth of ABP1 SH3-swapped strains” value (DMSO.2.) was 11.0205 and the “growth of ABP1 SH3-swapped strains” value (DMSO.6.) was 9.808. For the same molecule, the “growth of ABP1 SH3-swapped strains” value (DMSO.8.) was 8.962, the “growth of ABP1 SH3-swapped strains” value (Ethanol.2.) was 10.7684 and the “growth of ABP1 SH3-swapped strains” value (Ethanol.6.) was 10.4049. For the same molecule, the “growth of ABP1 SH3-swapped strains” value (Ethanol.8.) was 10.2263, the “growth of ABP1 SH3-swapped strains” value (Galactose.2.) was 10.8154 and the “growth of ABP1 SH3-swapped strains” value (Glycerol.2.) was 9.771. The “growth of ABP1 SH3-swapped strains” value (Hydroxyurea.25mM) was 10.7838, the “growth of ABP1 SH3-swapped strains” value (Hygromycin.190uM) was 10.9371 and the “growth of ABP1 SH3-swapped strains” value (Hygromycin.19uM) was 10.9563. The “growth of ABP1 SH3-swapped strains” value (Hygromycin.95uM) was 10.9936, the “growth of ABP1 SH3-swapped strains” value (MMS.0.004.) was 10.9851 and the “growth of ABP1 SH3-swapped strains” value (MMS.0.02.) was 10.7181. For the same molecule, the “growth of ABP1 SH3-swapped strains” value (MMS.0.04.) was 10.0309, the “growth of ABP1 SH3-swapped strains” value (Menadione.100uM) was 10.5941 and the “growth of ABP1 SH3-swapped strains” value (Menadione.200uM) was 10.4073. For the same molecule, the “growth of ABP1 SH3-swapped strains” value (Menadione.50uM) was 10.7963, the “growth of ABP1 SH3-swapped strains” value (NaCl.0.25M) was 10.8224 and the “growth of ABP1 SH3-swapped strains” value (NaCl.1M) was 9.702. For the same molecule, the “growth of ABP1 SH3-swapped strains” value (Nitroquinoline.10uM) was 10.7342, the “growth of ABP1 SH3-swapped strains” value (Nitroquinoline.50uM) was 10.7229 and the “growth of ABP1 SH3-swapped strains” value (Nystatin.0.01uM) was 11.0733. For the same molecule, the “growth of ABP1 SH3-swapped strains” value (Nystatin.0.1uM) was 11.0089, the “growth of ABP1 SH3-swapped strains” value (Raffinose.2.) was 11.0381 and the “growth of ABP1 SH3-swapped strains” value (Rapamycin.10nM) was 9.786. The “growth of ABP1 SH3-swapped strains” value (Rapamycin.50nM) was 9.424, the “growth of ABP1 SH3-swapped strains” value (SC.pH3) was 10.389 and the “growth of ABP1 SH3-swapped strains” value (SC.pH6) was 11.0143. For the same molecule, the “growth of ABP1 SH3-swapped strains” value (SDS.0.01.) was 10.9726, the “growth of ABP1 SH3-swapped strains” value (SDS.0.02.) was 10.9605 and the “growth of ABP1 SH3-swapped strains” value (SDS.0.05.) was 10.8495. The “growth of ABP1 SH3-swapped strains” value (Sorbitol.10mM) was 10.9902, the “growth of ABP1 SH3-swapped strains” value (Sorbitol.1mM) was 11.0334 and the “growth of ABP1 SH3-swapped strains” value (Sorbitol.5mM) was 10.9353.
